Positions count from the first letter of the chain named. Names and notes keep the numbering of the source. “Also recorded” adds a separate entry of the source.

In one data set the test system is cells depleted for EYA4. Briefly: MTT cell cytotoxicity assay, genotoxic stress (ATR inhibitor or hydroxyurea). In kind it is cell-based. The note with it: EYA4-depleted versus control cells, FIG. 21B, FIG. 22A. As to the method: For genotoxic stress, cells were seeded into 96-well plates (200 cells/well). Twenty-four hours after seeding, increasing concentrations of ATR inhibitor (AZ20) or hydroxyurea were added to the culture (24 h pulse). Cell cytotoxicity was measured after 96 h following manufacturer's protocol (Abcam ab211091). Briefly, 50 μL serum-free media (no phenol red) and 50 μL MTT reagent was added to each well and incubated at 37° C. for 3 h. MTT media was replaced with 150 μL of MTT solvent and incubated with agitation for 15 mn. Absorbance was measured at 590 nm. The cell viability was calculated using the following equation: […]
(Tetrazolium dyes change colour on reduction, which living cells bring about.)

The test system of a further data set is TKCC02.1 cells. Briefly: Survival of TKCC02.1 cells, alone and in combination. In kind it is cell-based. The note with it: TKCC02.1, at doses tested, FIG. 35, FIG. 36.
Data set [1] has as its system HeLa cells (empty vector or knocked down for EYA4). Briefly: MTT cell cytotoxicity assay with PARP inhibitor. In kind it is cell-based. The note with it: EYA4-depleted versus control cells, FIG. 5D. As to the method: HeLa cells (empty vector or knocked down for EYA4) were seeded in 96-well plates. After 24 hrs, increasing concentrations of PARP inhibitor (olaparib) were added. Cell cytotoxicity was measured following manufacturer's protocol (Abcam ab211091). Briefly, 50 μL serum-free media and 50 μL MTT reagent was added to each well and incubated at 37° C. for 3 hrs. MTT media was replaced with 150 μL of MTT solvent and incubated with agitation for 15 min. Absorbance was measured at 590 nm.

For another data set, the target named is cy5-labeled dsDNA. Briefly: Microscale thermophoresis (MST) DNA binding, dsDNA. As to the method:
(§1) A total of 12 concentrations of ligand proteins (e.g., EYA (1-365)) were serially diluted by 1:1 using MST buffer from 5 uM to 2.4 nM, 10 ul of each dose of ligand protein was mixed with 10 ul of cy5-labeled dsDNA/ssDNA supernatant. The mixture of EYA and DNA was loaded into premium capillaries for MST assay with parameters set up at auto-detected excitation power and medium MST power. Binding affinity was analyzed by MO. Affinity Analysis software (version 2.1.3, NanoTemper Technologies) using the signal from an MST-on time of 20 s. Three individual experiments were merged to generate standard deviation.
(§2) Cy5-labeled oligo P1 (T. T. Paull Curr Opin Genet Dev 71, 55-62 (2021)). from IDT ([…]-[…]; SEQ ID NO:1) was used as the ssDNA substrate. dsDNA was generated by annealing Cy5-labeled oligo P1 with its exact complement P2 […]-AAATAAGTAAAAG […] (SEQ ID NO:2). The annealed product was purified by SDS-PAGE then concentrated and quantified. For the long system assays, substrates were sourced from NEB. The ssDNA is the ϕX174 virion DNA and the dsDNA its replicative form ϕX174 RF I DNA.

In another data set the target is cy5-labeled ssDNA. Briefly: Microscale thermophoresis (MST) DNA binding, ssDNA. As to the method:
as §1, §2
Background: Microscale thermophoresis detects binding through changes in fluorescence in a small temperature gradient.

For data set [2], the target named is T1, RAD51 WT (UniProt Q06609 Q06609:1-339). Briefly: MST; +/- 18.1 nM, Hill 2.66. Conditions: tags: pET11 construct, E. coli BLR(DE3)pLysS; label: Cy5.
T1 sequence (Q06609 whole entry, one chain of several): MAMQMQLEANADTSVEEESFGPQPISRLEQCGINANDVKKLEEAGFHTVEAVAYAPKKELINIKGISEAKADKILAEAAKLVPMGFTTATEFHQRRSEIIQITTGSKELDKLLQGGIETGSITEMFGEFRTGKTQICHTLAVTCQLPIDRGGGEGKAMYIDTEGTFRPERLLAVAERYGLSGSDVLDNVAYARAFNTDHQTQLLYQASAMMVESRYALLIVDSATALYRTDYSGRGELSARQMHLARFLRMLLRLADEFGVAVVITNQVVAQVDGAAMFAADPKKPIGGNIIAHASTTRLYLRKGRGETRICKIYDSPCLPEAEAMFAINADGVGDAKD
Data set [3] addresses T2, RAD51 Y54F,Y315F (UniProt Q06609 Q06609:1-339, Y54F,Y315F). Briefly: MST; +/- 7.3 nM, Hill 3.31. The note with it: tags: pET11 construct, E. coli BLR(DE3)pLysS; label: Cy5.
For a further data set, the target named is RAD51 Y54D,Y315D (UniProt Q06609 Q06609:1-339, Y54D,Y315D). Briefly: MST; +/- 0.4951 uM, Hill 2.67. The note with it: tags: pET11 construct, E. coli BLR(DE3)pLysS; label: Cy5 on P1.
Data set [4] addresses T2, RAD51 Y54F,Y315F. Briefly: MST; +/- 11.7 nM, Hill 7.07. Conditions: tags: pET11 construct, E. coli BLR(DE3)pLysS; label: Cy5 on P1.
The target in data set [5] is T1, RAD51 WT. Briefly: MST; +/- 162.5 nM, Hill 2.30. The note with it: tags: pET11 construct, E. coli BLR(DE3)pLysS; label: Cy5 on P1.
[6] abbreviates: RAD51 proteins binding dsDNA, Table 5.
[7] abbreviates: RAD51 proteins binding ssDNA, Table 5.
Setting [8] is: EYA4 constructs binding dsDNA, Table 4.
Setting [9] is: EYA4 constructs binding ssDNA, Table 4.

Description for TKCC02.1 cells: Similar doses of EYA4i were tested alone and in combination with PARPi (olaparib) or Camptothecin (CPT).

For the molecule `C[C@@H]1COCCN1c1cc(C2(S(C)(=O)=O)CC2)nc(-c2cccc3[nH]ccc23)n1` [AZ20], the “sensitivity of cells depleted for EYA4 (MTT)” value in the data set on cells depleted for EYA4 is reported as “sensitive”.
As to `CC[C@@]1(O)C(=O)OCc2c1cc1n(c2=O)Cc2cc3ccccc3nc2-1` [CPT], the “lethality / efficacy as single agent” value in the data set on TKCC02.1 cells was “not lethal; also recorded: neither PARPi nor CPT are lethal”.
With `O=C(c1cc(Cc2n[nH]c(=O)c3ccccc23)ccc1F)N1CCN(C(=O)C2CC2)CC1` [Olaparib], in data set [1], the “sensitivity of cells depleted for EYA4 (survival, MTT)” value is “sensitive”. Besides, in the data set on TKCC02.1 cells (listed as PARPi), the “lethality / efficacy as single agent” value is “not lethal; also recorded: neither PARPi nor CPT are lethal”.
Take `NC(=O)NO` [hydroxyurea]: the “sensitivity of cells depleted for EYA4 (MTT)” value in the data set with cells depleted for EYA4 is on record as “sensitive”.

B1: WT: purified wild type RAD51 (protein, UniProt Q06609 2-339, looked up)
DNA repair protein RAD51 …: AMQMQLEANADTSVEEESFGPQPISRLEQCGINANDVKKLEEAGFHTVEAVAYAPKKELINIKGISEAKADKILAEAAKLVPMGFTTATEFHQRRSEIIQITTGSKELDKLLQGGIETGSITEMFGEFRTGKTQICHTLAVTCQLPIDRGGGEGKAMYIDTEGTFRPERLLAVAERYGLSGSDVLDNVAYARAFNTDHQTQLLYQASAMMVESRYALLIVDSATALYRTDYSGRGELSARQMHLARFLRMLLRLADEFGVAVVITNQVVAQVDGAAMFAADPKKPIGGNIIAHASTTRLYLRKGRGETRICKIYDSPCLPEAEAMFAINADGVGDAKD
B1: the 50% effective concentration (EC50) (as a rule, the midpoint of the concentration-response curve) stood at 1160 nM at cy5-labeled dsDNA (setting [6]) and 515 nM at cy5-labeled ssDNA (setting [7]).

B2: YF, YF: double-mutant RAD51 (Y54F, Y315F) that cannot be phosphorylated (protein, UniProt Q06609 2-339, looked up, variant Y54F Y315F)
DNA repair protein RAD51 …: B1 DNA repair protein RAD51 … with Y53F, Y314F
Take B2: the EC50 stood at 561 nM on cy5-labeled dsDNA (setting [6]) and 427 nM at cy5-labeled ssDNA (setting [7]).

B3: YD, YD: double phospho-mimetic RAD51 (Y54D, Y315D) (protein, UniProt Q06609 2-339, looked up, variant Y54D Y315D)
DNA repair protein RAD51 …: B1 DNA repair protein RAD51 … with Y53D, Y314D
Take B3: the 50% effective concentration (EC50) at cy5-labeled dsDNA (setting [6]) is 3070 nM; at cy5-labeled ssDNA (setting [7]), more than 5000 nM.

B4: oligo P1 ssDNA (ssDNA)
DNA: TTATATCCTTTACTTTGAATTCTATGTTTAACCTTTTACTTATTTTGTATTAGCCGGATCCTTATTTCAATTATGTTCAT
With B4, the concentration for a half-maximal effect (EC50) came to 515 nM in the data set with RAD51 WT [2] and 427 nM with RAD51 Y54F,Y315F [3].

B5: P1/P2 dsDNA (dsDNA)
DNA 1: B4 DNA
DNA 2: ATGAACATAATTGAAATAAGGATCCGGCTAATACAAAATAAGTAAAAGGTTAAACATAGAATTCAAAGTAAAGGATATAA
Regarding B5, the concentration giving a half-maximal response (EC50) is 3070 nM with RAD51 Y54D,Y315D, 561 nM with RAD51 Y54F,Y315F [4] and 1160 nM with RAD51 WT [5].

B6: SQTQ: phosphomimetic EYA4 double mutant in the ATM-ATR consensus site SQTQ (S209D, T211D) (protein, UniProt O95677 1-639, looked up, variant S209D T211D)
Protein phosphatase EYA4: MEDSQDLNEQSVKKTCTESDVSQSQNSRSMEMQDLASPHTLVGGGDTPGSSKLEKSNLSSTSVTTNGTGGENMTVLNTADWLLSCNTPSSATMSLLAVKTEPLNSSETTATTGDGALDTFTGSVITSSGYSPRSAHQYSPQLYPSKPYPHILSTPAAQTMSAYAGQTQYSGMQQPAVYTAYSQTGQPYSLPTYDLGVMLPAIKTESGLDQDQSPLQSGCLSYSPGFSTPQPGQTPYSYQMPGSSFAPSSTIYANNSVSNSTNFSGSQQDYPSYTAFGQNQYAQYYSASTYGAYMTSNNTADGTPSSTSTYQLQESLPGLTNQPGEFDTMQSPSTPIKDLDERTCRSSGSKSRGRGRKNNPSPPPDSDLERVFVWDLDETIIVFHSLLTGSYAQKYGKDPPMAVTLGLRMEEMIFNLADTHLFFNDLEECDQVHIDDVSSDDNGQDLSTYSFATDGFHAAASSANLCLPTGVRGGVDWMRKLAFRYRRVKELYNTYKNNVGGLLGPAKRDAWLQLRAEIEGLTDSWLTNALKSLSIISTRSNCINVLVTTTQLIPALAKVLLYSLGGAFPIENIYSATKIGKESCFERIMQRFGRKVVYVVIGDGVEEEQAAKKHNMPFWRISSHSDLLALHQALELEYL
Take B6: on cy5-labeled dsDNA (DNA (type not stated), FIG. 3E), the equilibrium dissociation constant (Kd) (commonly the constant that tells how readily two partners part at equilibrium) was more than 2000 nM. Moreover, the EC50 at cy5-labeled dsDNA (setting [8]) is 2200 nM; on cy5-labeled ssDNA (setting [9]), 515 nM.

B7: 1-365: N-terminally m-cherry-tagged EYA4 (aa 1-365), purified (protein, UniProt O95677 1-365, looked up, fragment)
chain: MEDSQDLNEQSVKKTCTESDVSQSQNSRSMEMQDLASPHTLVGGGDTPGSSKLEKSNLSSTSVTTNGTGGENMTVLNTADWLLSCNTPSSATMSLLAVKTEPLNSSETTATTGDGALDTFTGSVITSSGYSPRSAHQYSPQLYPSKPYPHILSTPAAQTMSAYAGQTQYSGMQQPAVYTAYSQTGQPYSLPTYDLGVMLPAIKTESGLSQTQSPLQSGCLSYSPGFSTPQPGQTPYSYQMPGSSFAPSSTIYANNSVSNSTNFSGSQQDYPSYTAFGQNQYAQYYSASTYGAYMTSNNTADGTPSSTSTYQLQESLPGLTNQPGEFDTMQSPSTPIKDLDERTCRSSGSKSRGRGRKNNPSPPPD
modifications: N-terminal mCherry tag
notes: N-terminally m-cherry-tagged EYA4 (aa 1-365), purified
For B7, the EC50 at cy5-labeled dsDNA (setting [8]) was determined as 733 nM; on cy5-labeled ssDNA (setting [9]) it was 303 nM. Moreover, the Kd on cy5-labeled dsDNA (dsDNA binding, FIG. 3C) worked out at 732 nM; at cy5-labeled ssDNA (ssDNA binding, FIG. 3C), 303 nM.

(Values after patent US20250009750A1, “METHODS OF TREATING DISORDERS ASSOCIATED WITH EYA OVEREXPRESSION AND MUTATIONS” (The Board of Regents of the University of Texas System, priority 2023, published 2025).)
